Assay: yeast display, Sf9 membrane polyspecificity reagent, FACS + sequencing; frameworks hold sequencing errors
In short: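 Galactose induction of a Saccharomyces cerevisiae BJ5465 synthetic nanobody display library ran 36–48 hours. The cells were then stained for 1 hour at 4 °C with 10% biotinylated, detergent-solubilized Sf9 membrane reagent, pulled down on streptavidin microbeads and FACS-sorted into low and high (top ~1%) gates on expression and reagent-binding fluorescence. Labels for polyreactivity follow the gate of origin.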

Row | Sequence | polyreactivity (PSR sort gate)
1 | QVQLVESGGGLVQAGGSLRLSCAASGITFRKYAMGWYRQAPGKERELVAGIRYSGSSTYYADSVKGRFTISRDNAKNTVYLQMNSLTPEDTAVYYCAVYGTTRYATTYDYWGQGTQVTVSS | high polyreactivity
2 | QVQLVESGGGLVQAGGSLRLSCAASGITFRKYAMGWYRQAPGTERELVAAISAGGGRTFYADSVKGRFTISRDNAKNTVYLQMNSLKPEDTAVYYCNADLGIGYDYWGQGTQVTVSS | high polyreactivity
3 | QVQLVESGGGLVQAGGSLRLSCAASGITFRLYAMGWYRPAPGKERELVAAISKRGGSTYYADSVKGRFTISRDNAKNTVYLQMNSLKPEDTAVYYCAADSGWEHRYDYWGQGTQVTVSS | high polyreactivity
4 | QVQLVESGGGLVQAGGSLRLSCAASGITFRLYAMGWYRQAPGKEREFVAAISRRGGSTYYADSVKGRFTISRDNAKNTVYLQMNSLKPEDTAVYYCARYGLVYALGYWGQGTQVTVSS | high polyreactivity
5 | QVQLVESGGGLVQAGGSLRLSCAASGITFRNYAMGWYRQAPGKEREFVAAIRWGGGSTYYEDSGKGRFTISLDNAKNTVYLQMNSLKPEDTAVYYCATRGYSRNNPYSRPYDYWGQGTQVTVSS | high polyreactivity
6 | QVQLVESGGGLVQAGGSLRLSCAASGITFRRYALGWYRQAPGKERELVAAITSGGGTYYADSVKGRFTISRDNAKNTVYLQMNSLKPEDTAVYYCNTYYHWLTMDYWGQGTQVTVSS | high polyreactivity
7 | QVQLVESGGGLVQAGGSLRLSCAASGITFRRYAMGWYRPAPGKERELVAVISVSGGRTHYADSVKGRFTISRDNAKNTVYLQMNSLKPEDTAVYYCAADFLRYPLGYWGQGTQVTVSS | high polyreactivity
8 | QVQLVESGGGLVQAGGSLRLSCAASGITFRRYTMGWYRQAPGKERELVAAISRTGGSTYYADSVKGRFTISRDNAKNTVYLQMNSLKPEDTAVYYCAARPHRYTSRHGYWGQGTQVTVSS | high polyreactivity
9 | QVQLVESGGGLVQAGGSLRLSCAASGITFRRYTMGWYRQAPGKERELVAAITSRGSSTYYADSVKGRFTISRDNAKNTVYLQMNSLKPEDTAVYYCAAQYRQRRHDYWGQGTQVTVSS | high polyreactivity
10 | QVQLVESGGGLVQAGGSLRLSCAASGITFRRYTMGWYRQAPGKERELVATISLSDGNTYYADSVKGRFTISRDNAKNTVYLQMNSLKPEDTAVYYCNALHTWHQTYYYWGQGTQVTVSS | low polyreactivity
11 | QVQLVESGGGLVQAGGSLRLSCAASGITFRVYVMGWYRQAPGKERELVAAITRSGGRTYYADSVKGRFTISRDNAKNTVYLQMNSLKPEDTAVYYCAAEYDVYGIYEYDYWGQGTQVTVSS | high polyreactivity
12 | QVQLVESGGGLVQAGGSLRLSCAASGITFRWYAMGWSRQAPGKERELVAAIDGGGSTYYADSVKGRFTISRDNAKNTVYLQMNSMKPEDTAVYYCAADYGRRYHTPYGWDYYYWGQGTQVTVSS | high polyreactivity
13 | QVQLVESGGGLVQAGGSLRLSCAASGITFRWYAMGWYRQAPGKEREFVAAIDASGSTYYADSVKGRFTISRDNAKNTVYLQMNSLKPEDTAVYYCAADWDEYFGGDYWGQGTQVTVSS | low polyreactivity
14 | QVQLVESGGGLVQAGGSLRLSCAASGITFRWYAMGWYRQAPGKERELVALIDGRGASTYADSVKGRFTISRDNAKNTVYLQMNSLKPEDTAVYYCAVAQVRVTYLWVRKFYYWGQGTQVTVSS | high polyreactivity
15 | QVQLVESGGGLVQAGGSLRLSCAASGITFRYNAMGWYRQAPGKERELVAAISYSGGSTYYADSVKGRFTISRDNAKNTVYLQMNSLKPEDTAVYYCAARIYSYPRGQYDYWGQGTQVTVSS | low polyreactivity
16 | QVQLVESGGGLVQAGGSLRLSCAASGITFRYYAKGWYRQAPGKERELVAAISRAGSTNYADSVKGRFTISRDNAKNTVYLQMNSLKPVDTAVYSCNARRRSTNAVSYRYITPYDYWGQGTQVTVSS | high polyreactivity
17 | QVQLVESGGGLVQAGGSLRLSCAASGITFRYYAMGWYRQAPGKERELVADINRGSDTNYADSVKGRFTISRDNAKNTVYLQMNSLKPEDTAVYYCNAYWQGYGYDYWGQGTQVTVSS | low polyreactivity
18 | QVQLVESGGGLVQAGGSLRLSCAASGITFRYYTMGWYRQAPGKERELVAAITTSGTGTYYADSVKGRFTISRDNAKNTVYLQMNSLNPEYSAVYYCATYPHIAVLSRYDYWGQGTQVTVSS | low polyreactivity
19 | QVQLVESGGGLVQAGGSLRLSCAASGITFSAYAMGWYRQAPGKERELVARISTDADTYYADSVKGRFTISRDNAKNTVYLQMNSLKPEDTAVYYCNADWSWYNYYDFDYWGQGTQVTVSS | low polyreactivity
20 | QVQLVESGGGLVQAGGSLRLSCAASGITFSFYVMGWDRQAPRKERELVAAISRGGSTYYADSVKGRFTISRDNAKNTVYLQMNSLKPEDTAVYYCAAVRLSRVYYWGQGTQVTVSA | high polyreactivity
21 | QVQLVESGGGLVQAGGSLRLSCAASGITFSGNAKGWYRQAPGKERELDAAITFSGGITYYADSVKGRFTISRDNAKNTVFLQMNSLKPEDTAVYYSATDPIGGWTRPQRYGDDYWGQGTQVTVSS | low polyreactivity
22 | QVQLVESGGGLVQAGGSLRLSCAASGITFSGNAMGWYRQAPGKEREFVAAITFSGGRTYYADSVKGRFTISRDNAKNTVYLQMNSLKPEDTAVYFCAAETPRGRWLGDYWGQGTQVTVSA | low polyreactivity

Row | Sequence | polyreactivity (PSR sort gate)
23 | QVQLVESGGGLVQAGGSLRLSCAASGITFSGYDMGWYRQAPWKERELVASSTYYADSVKGRFTISRDNAKNTVYLQMNSLKPEDTAVYYCAADSPGDFGGYGFDYWGQGTQVTVSS | high polyreactivity
24 | QVQLVESGGGLVQAGGSLRLSCAASGITFSKYAMGWYRQAPGKERELVASITWSGTSTYYADSVKGRFTISRDNAKNTVYLQMNSLKPEDTAVYYCAAEGWGTFWRPPNGYGYEHDYWGQGTQVTVSS | low polyreactivity
25 | QVQLVESGGGLVQAGGSLRLSCAASGITFSNYSMGWYRQAPGKERELVAAISKRGGSTYYADSVKGRFTISRDNAKNTVYLQMNSLKPEDTAVYNCAAAGVRVYVRSGLDYWGQGTQVTVSS | high polyreactivity
26 | QVQLVESGGGLVQAGGSLRLSCAASGITFSRNAMGWYRQAPGKERELVAVISTRGGRTYYADSVKGRFTISRDNAKNTVYLQMNSLKPEDTAVYYCAASPDPYWRRMDYWGQGTQVTVSS | high polyreactivity
27 | QVQLVESGGGLVQAGGSLRLSCAASGITFSRYAMGWYRQAPGKERELVAAITARGGTTYYADSVKGRFTISRDNAKNTVYLQMNSLKPEDTAVYYCAAYKTYGSKYVFVDPGEYDYWGQGTQVTVSS | high polyreactivity
28 | QVQLVESGGGLVQAGGSLRLSCAASGITFSRYAMGWYRQAPGKERELVAAITSSGGSTYYADSVKGRFTISRDNAKNTVYLQMNSLKPEDTAVYYCAATSYYTREQYYYWGQGTQVTVSS | high polyreactivity
29 | QVQLVESGGGLVQAGGSLRLSCAASGITFSSYAMGWSRQAPGKERELVAAIRRRGGTTYYADSVKGPFTISRDNAKNTVYLQMNSLKPEDTAVYYCAARSKSAYWGQGTQVTVSS | high polyreactivity
30 | QVQLVESGGGLVQAGGSLRLSCAASGITFSYALGWYRQAPGKERELVAGITTSGGSTYADSVKGRFTISRDNAKNTVYLQMNSLKPEDTAVYYCAADRSAVQFSAFLEYDYWGQGSQVTVSS | low polyreactivity
31 | QVQLVESGGGLVQAGGSLRLSCAASGITFSYNAMGWYRQAPGKERELVAAISSNSDSTYYADSVKGRFTISRDNAKNTVYLQMISLKPEDTAVYYCADDTPDAPDYSGFYYWGQGTQVTVSS | low polyreactivity
32 | QVQLVESGGGLVQAGGSLRLSCAASGITFSYYAMGWYRKAARKERELVAAINGGGSRTYYADSVKGRFTISRDNAKNTVYLQMNSLKPEETAVYYCAAYSGQARGYDYWGQGTQVTVSS | high polyreactivity
33 | QVQLVESGGGLVQAGGSLRLSCAASGITFSYYAMGWYRPAPGKERELVAAINSGGGSTYYADSVKGRFTISRDNAKNTVYLQMNSLKPEDTAVYYCAARYRSRYDYYYDRDYWGQGTQVTVSS | low polyreactivity
34 | QVQLVESGGGLVQAGGSLRLSCAASGITFTFYAMGWYRQAPGKERELVAAISRRGGSTYYADSVKGRFTISRDNAKNTVYLQMNSLKPEDTAVYYCAARGYRPMDYWGQGTQVTVSS | high polyreactivity
35 | QVQLVESGGGLVQAGGSLRLSCAASGITFTRYTMGWYRPAPGKERELVAAITGGSTYYADSVKGRFTISRDNAKNTVYLQMNSLKPEDTAVYYCAAAYESPYIQPLDYWGQGTQVTVSS | high polyreactivity
36 | QVQLVESGGGLVQAGGSLRLSCAASGITFTSYAMGWYRQAPGKERELVAAISSSGGSTYYADSVKGRFTISRDNAKNTVYLQMNRLKPEDTAVFYCNARPRSRSPRVEYDYWGQGTQVNVSS | high polyreactivity
37 | QVQLVESGGGLVQAGGSLRLSCAASGITFTSYAMGWYRQAPGKERELVASIDSDDSTNYADSVKGRFTISRDNAKNTVYLQMNSLKPEDTAVYYCAASDNDDWYYVYHYDYWGQGTQVTVSS | low polyreactivity
38 | QVQLVESGGGLVQAGGSLRLSCAASGITFTSYVMGWYRQAPGKERELVAAIRWSGGRTYYADSVKGRFTISRDNAKNTVYLQMNSLKPEDTAVYYCNADYAYNSYGYRFYYWGQGTQVTVSS | high polyreactivity
39 | QVQLVESGGGLVQAGGSLRLSCAASGITFTVNAMGWYRQAPGKERELVAAISNDGSTYYADSVKGRFTISRDNAKNTVYLQMNSLKPEDTAVYYCSADTWDDFGPYGYDYWGQGTQVTVSS | low polyreactivity
40 | QVQLVESGGGLVQAGGSLRLSCAASGITFTVYAMGWYRQARGKERELVAAINSGSSTNYADSVKGRFTISRDNAKNTVFLQMNSLKPEDTAVYYCAASYRKLPDKKRYGYWGQGTQVTVSS | high polyreactivity
41 | QVQLVESGGGLVQAGGSLRLSCAASGITFTVYTMGWYRQAPGKERELVAAITTSGTTTYYADSVKGRFTISRDNAKNTVYLQINSLKPEDTAVYYCAARQVWGEGVKSYYWGQGTQVTVSS | high polyreactivity
42 | QVQLVESGGGLVQAGGSLRLSCAASGITFTWYGMGWYRQAPGKERELVAAISLTGARTYYADSVKGRFTISRDNAKNTVYLQMNSLKPEDTAVYYCNARPQGRGGTYLPRYDYWGQGTQVTVSS | high polyreactivity
43 | QVQLVESGGGLVQAGGSLRLSCAASGITFVANAMGWYRQAPGKERELVAGITQTGGSTYYADSVKGRFTISRDNAKNTVYLQMNSLKPEDTAVYYCAATYRRLRYGKLYYYWGQGTQVTVSS | high polyreactivity

Reference: the nanobody polyreactivity screen of Harvey et al. (2022)
